Results: paper PMC2716403 (Journal of molecular biology, 2009)
Where two headings read alike, the source gives them in different places.

B1: Nup153-ZnF1 (domain or fragment)
chain: AGSSWQCDTCLLQNKVTDNKCIACQAAKL
B2: Nup358-ZnF12 (domain or fragment)
chain: KEGSWWHCNSCSLKNASTAKKCVSCQNLNPSNKELVGPPLAETVFTPKTSPENVQDRFALVTPKKEGHWDCSICLVRNEPTVSRCIACQNTKSA
B3: Nup153-ZnF3 (domain or fragment)
chain: VGSWECPVCCVSNKAEDSRCVSCTSEKP
B4: Nup153-ZnF4 (domain or fragment)
chain: GSWDCEVCLVQNKADSTKCIACESAKPGTKSEFKGFGT
B5: Nup153-ZnF2 (domain or fragment)
chain: GTWDCDTCLVQNKPEAVKCVACETPKPG
B6: Nup153-ZnF4D8Q (domain or fragment)
chain: GPLGSGSWQCEVCLVQNKADSTKCIACESAKPGTKSEFKGFGT

Assays:
Test in all cases: ITC
[1] = molecular target: T1, RanGDP (wild-type Ran, GDP-bound) (Rattus norvegicus, UniProt P62828 1-216)
[2] = molecular target: T1, RanGDP (wild-type Ran, GDP-bound); remark: listed apart in the source
[3] = molecular target: RanGDP (wild-type Ran, GDP-bound) (Rattus norvegicus, UniProt P62828 1-216); remark: listed apart in the source

Binder | Kd [1] | Kd [2] | other results
B1 | 6 µM |  | 
B2 |  | 15 µM | 
B3 | 7 µM |  | 
B4 |  | 47 µM | 
B5 |  | 49 µM | 
B6 |  |  | Kd [3]: 3 µM
